In patent US20220267442A1:

Target: TGFβ1 (human) (UniProt P01137)
Experiment: SPR

Sequence of TGFβ1 (human) (P01137 279-390): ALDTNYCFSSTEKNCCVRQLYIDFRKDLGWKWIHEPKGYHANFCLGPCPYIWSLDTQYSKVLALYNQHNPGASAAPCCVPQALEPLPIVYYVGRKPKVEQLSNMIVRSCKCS

αTGF-β (1D11)
Kd: 26.6 nM
